Consider 1 protein from FireProtDB (doi:10.1093/protein/gzl019).

For this data set the following is noted: Bacillus caldolyticus, pH 7, Thermal, Na cacodylate/HCl 0.1 M, reversible: Yes, whole UniProt chain shown.

B1: Cold shock protein CspB wild type, P41016 (protein)
chain: MQRGKVKWFNNEKGYGFIEVEGGSDVFVHFTAIQGEGFKTLEEGQEVSFEIVQGNRGPQAANVVKL
In general, Tm refers to the temperature at which the thermal transition is half complete. As to B1, under “CD”, the Tm was found to be 76.9 °C and the “unfolding enthalpy (van 't Hoff)” value turned out to be 58.6 kcal/mol. In addition, for the setting “DSC”, the Tm came to 76.9 °C and the “unfolding enthalpy (calorimetric)” value was 61.4 kcal/mol.
